We go through 74 sequences from the supplement of paper PMC12636428.

This series deals with Saccharomyces cerevisiae. Nature of the series: transcriptional activation domain activity (GFP:mCherry ratio, weighted mean of sorted bins, harmonized to initial dataset scale) (arbitrary fluorescence ratio units); higher = stronger transcriptional activation. The conditions noted are these: beta-estradiol 1 µM; induction time 4 h. In outline:
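For this assay, yeast diploids with a GFP reporter carried barcoded protein tiles at URA3, each fused to an estradiol-inducible synthetic transcription factor. Induction was a 1:5 dilution into SC with 1 uM beta-estradiol for 4 hours at 30 °C, followed by sorting into 8 bins by GFP:mCherry ratio and barcode sequencing. Tiles under 50 reads were dropped, and activation activity was calculated as the read-weighted mean of bin median fluorescence, averaged across barcodes and linearly mapped onto the initial dataset scale.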
In the case of “ALRRRTTDDGRLPREDLVHSEISVAVVSSPLSFASRFSPTPAVAVLVTALPVV”, the “transcriptional activation domain activity” value came to 80600.

For the sequence “YLIRLILVILLMEFMLHYIYVQALCKSKNFENYTPYQLLMISFFSLKFIWLKL”, the “transcriptional activation domain activity” value is 58900.

As to “MKSVVFCFLPLFFFCHSSKANHSSTFISMPPFFSLFFFFFPFSHFPTLSVLFG”, the “transcriptional activation domain activity” value amounted to 50600.

On to “DPPKRGRGRPKGSKNKKSTGVAAAAPAPAAGPSTGEKRKRGRPPKPKPEGEAG”, for which the “transcriptional activation domain activity” value was found to be 43800.

For “MCLCLLLLLLLHVFIFFMSFYPSGWPPSYSIIFFLWSFILVVFYPCKFFFLVV”, the “transcriptional activation domain activity” value worked out at 70400.

As to “QQLGLWIFTWCACNFFLLFFVLKHSIHQKDINILIANVLDIWGLIDPQQILVK”, the “transcriptional activation domain activity” value came to 61600.

For the sequence “LFICRYTSDGQFIGNQNGCYNLVPVYDWIKRCVISIFVVFFIAFLPLFLQELC”, the “transcriptional activation domain activity” value came out at 56900.

As for “KAAAMKKVLAKPADKTKKTSSAKNDTKKAAAKAAATKPKARTTKTAKAAAATK”, the “transcriptional activation domain activity” value is 7370.

With “YDTPSLQMMTIHKSFFGIVNDDTFHWKGLSKLSLDSVPGCRLLSILLLCSATL”, the “transcriptional activation domain activity” value was 73200.

Consider “AAAAAAAAAAAAAAAAAAAAAAAAAAAQQRRRQQQQQRRGSSAAARRQQQQQR”, for which the “transcriptional activation domain activity” value was 22600.

For the sequence “SVKTKAAGKGKPKTTNDKATKSSEPRKAAKVSDDETKPTSNGAASAKAGGERQ”, the “transcriptional activation domain activity” value came to 23600.

With “NFFSCLSFLFLFIFLFIFLLFHFPYLFSFQFCLLPIFSHFSIDHQKPYPFPSF”, the “transcriptional activation domain activity” value amounted to 37700.

On to “GEIAQLWDFNVDQFNMTPSNSSGSATISAPNSFTSDIPQYNHGSLGNSVSKSS”, for which the “transcriptional activation domain activity” value came out at 48300.

In the case of “ETAPATEEKPVEETKPAEEAAKTEEEKKEDEAKPIEEGHLNHKAQGLSFPKNL”, the “transcriptional activation domain activity” value is 55000.

Take “MRELFIFILFLFHFYPYSYFNYYIFFSFSYFLFRYFVSIIIIFFLIQVVFGLV”: the “transcriptional activation domain activity” value was found to be 101000.

For the sequence “ARFNLYLLSWLHVLSAKSASLGSSKAWWIRPAEIAMMSCYWYIFGYLLLWCTL”, the “transcriptional activation domain activity” value is 65800.

With “LRLSTTISAYGIGIGYTAAVLVQVLSIVILILLESTTFALRLVLFVVGAWWLI”, the “transcriptional activation domain activity” value stood at 46900.

As to “ALSTRPFVLSDMIFFFGVGTLITLPIPFLVIYDYPYKKPRTYQVYLLICVWAW”, the “transcriptional activation domain activity” value came out at 61500.

As for “STRNYKLYIGNTVFFCGGRFLTSRAFWAFGLSLFLINMPAILFIIFSCPWLWY”, the “transcriptional activation domain activity” value came to 55900.

Turning to “GKSKEERERDEEVIRKWSGKPTKVMLQVFDDCSLSFTRPAKLMYRSIAHFSLW”, the “transcriptional activation domain activity” value came to 65100.

As to “AYTATNVGIPFNRAMDHLHRMMSRFEYCIFEGTSLPVFGIIGLQVRCQWLGCS”, the “transcriptional activation domain activity” value came out at 73700.

On to “MLWVCTSRKGESRVVCLGLAHLSIWIRGLLVLERILVCSMSLSCWRVGILKCT”, for which the “transcriptional activation domain activity” value was 53800.

With “MQCSISYWRQNQVTDNFALFYIIPCFLSILLYYSSFQSYYEQRAWRLILFFYF”, the “transcriptional activation domain activity” value is 56700.

Regarding “KQYCVRPNSGRIEPGSDVEVQILLQAMKEDPPLEAKCRDKFLVQSVAVSADKE”, the “transcriptional activation domain activity” value amounted to 45400.

Take “CNVLCYGYNVVLLVMKLYVKRVFVSPRGVRQPLVLAPYEHTLYIRFSCQPITD”: the “transcriptional activation domain activity” value is 29300.

Consider “MACCNQTWLYIPTNYYFAFLMFGISIVHVLFIQNQGFSRVIFFLFFAWDLFVS”, for which the “transcriptional activation domain activity” value was 84600.

In the case of “IRYLDHTQLLGEPLLKRTFMGGHIFIPTLIDTALCQSYFSSHILDILRHLTFS”, the “transcriptional activation domain activity” value was 63300.

With “KVSFLFGVWFFFSFEVLGFFDFFPSFLSFRRIFFIIFILYFIIYLYVVFFVSF”, the “transcriptional activation domain activity” value worked out at 73700.

Regarding “QGTNHAYHEHILNTDMDLKILEDLCNISSLYEVPFGKHINHHDHNNAGNGCDG”, the “transcriptional activation domain activity” value amounted to 83400.

With “MANHQLYTDWLYLWWIAYTNKMAGHVYIILKESLKNIPLIGWGAQFYNFIFLA”, the “transcriptional activation domain activity” value amounted to 54800.

“RDRGDSHRRHHHRSGSDDERRHRSDRRAREKDGDRSRSHRSSRHADEREERDE”: the “transcriptional activation domain activity” value is 17600.

With “RRVLVLVMEELGYRTDHAFRIAHRLDRLYQMALTRFLTLTAGVIDLMERIRMS”, the “transcriptional activation domain activity” value amounted to 58400.

Consider “PLALDFPPLGHMVELVDVVMWLCGRAGELPMWPQKIFNFNWIELSMKYPHHFI”, for which the “transcriptional activation domain activity” value came to 50500.

In the case of “QRGVGTGVLKVGVDGGGHDEERIRWEAEMVGRERNWVLKKFLGQAISSQLDHA”, the “transcriptional activation domain activity” value stood at 44800.

“FFLKVYLLNPMHMTRFADLLYQGAILNRVFQPYESHLQYLLQWMCDYNLYGCA”: the “transcriptional activation domain activity” value is 46700.

Take “LYEHLDEDHRLLWSYLSRLGSYVFQPEIPDLTLYLSELKTVIRCFLNQLIKIS”: the “transcriptional activation domain activity” value turned out to be 56700.

Consider “EVSEESGDSGDDEGRKEKKKRKRVKEEEVEDEGERKKKKSKKSKDEKSAEKAD”, for which the “transcriptional activation domain activity” value worked out at 47600.

“ICHYKGSLIGKHFKSLSQVMPFIIYDLVPSTVLNAWTIMGKLIVLIWHTKILN”: the “transcriptional activation domain activity” value amounted to 38600.

On to “PSPLPKHQIIREASNVRNITKMKKYDSTFYLHRDHVNYEEYGVDSLLFSYPED”, for which the “transcriptional activation domain activity” value was 58100.

As to “SSTWFEPLENIISSASSSSIGSPIEDQFISSNNEESALFPTDQFFSNPSSYSH”, the “transcriptional activation domain activity” value was 84600.

For the sequence “VYIFLTFFIATWWPLCLVNLFGWMLLYLFRGVFPEAIMLIFNVLSRVVTIHRI”, the “transcriptional activation domain activity” value came to 42000.

In the case of “MCSILPTVCNQYLIFLSFVSCPSMLYLISYFFLMWSFFSLHNWFFCWVPCCVL”, the “transcriptional activation domain activity” value was found to be 52700.

For the sequence “NLLDFRKILVNVVCILVVDVVLLMSMLIGLLRYSHRNSTGLWHLLYQQCIIWL”, the “transcriptional activation domain activity” value came out at 45000.

For “MNFFFCMRSWTLLCYPKTGLLFFILCFFSSALSILSPPPCIFFFFFFLSRVCC”, the “transcriptional activation domain activity” value is 45100.

For “KKSDEKDDTKPKKKKAKHDDADKESKKKLKKASKEKKSKSTKSKKDTAENAIA”, the “transcriptional activation domain activity” value was found to be 42900.

With “MFFFLSAFLLPFLFFLVGHSAPSFLYLVFLSFLFYYLLHFYFFLFFTYFCGSC”, the “transcriptional activation domain activity” value was found to be 59300.

In the case of “FTPWLSSTFFLFFAVIRWGAYCLVPLLLPSFPSIPLSLYPIRFPSTHVLVLIV”, the “transcriptional activation domain activity” value was found to be 61000.

Regarding “MGPISFFFLFWRYYRLYCLFFVFFFFSTGLRWHDTLFHFLSFLLLGLPLLKRS”, the “transcriptional activation domain activity” value worked out at 82100.

For “LLLLIFAVFLRACDILSSQWLIWWTDGIVLGASHDLNFWKGWYMFIVWISLFF”, the “transcriptional activation domain activity” value came to 54800.

With “MEGMQVEQDIARGSRKPHRKSRLGCGNCKQRRVKCDERKPSCDRCVKHNILCD”, the “transcriptional activation domain activity” value was found to be 23800.

For the sequence “EEGASQRANQRGKGEEGASQTANQRGKGEEGNQRRKGRKGAKGGRGRKGAKGG”, the “transcriptional activation domain activity” value came out at 28500.

Take “KFNNRLSSDSTSPIKYEADVSAGGKISEDNSTKGSSKESSAIADELDWLKFGI”: the “transcriptional activation domain activity” value was 40600.

“MDDDIAMFDSLATTQPIDIAASNQQNGEIAQLWDFNVDQFNMTPSNSSGSATI”: the “transcriptional activation domain activity” value was 76100.

Take “NQQPVFRAKYLLRQLFHLCNRTEHELRTLWTPAMVVLVARRLFDSIHPALGSL”: the “transcriptional activation domain activity” value is 58300.

As for “LSLLSLCLGILHSSFKTCFVLLFVLIHICICTLFLIFSFFTPLLTIPTYVTLS”, the “transcriptional activation domain activity” value was found to be 57500.

Take “LDRTVEAFRHADALRDVHLYGMVFSYFKMPLWQLTRFSGDIIGLNEYLLLFYN”: the “transcriptional activation domain activity” value came to 38000.

Regarding “MATLLGGFWFLVLCSIMLSALLTPLILLTGSLILLSFGSFPSLPHWLLIIIVH”, the “transcriptional activation domain activity” value turned out to be 62400.

For “CHVLRMYTPYWILFPNDLIQLLKVIPALRCLHILSKGIRIIRWKPLPYLLWED”, the “transcriptional activation domain activity” value is 51800.

“RRWQWYWGCFVCACALISLFLNVEVDRYRVQQLPLIVTSFFWYLMCMGTTCVV”: the “transcriptional activation domain activity” value amounted to 44600.

Regarding “IVMGKGTVHLCYLILSFFMYLLYSLLSHTQNILLDPLHTLFVSTFCLLHHSVF”, the “transcriptional activation domain activity” value is 56200.

As to “GLCYCHSIKLRHLLIPMEKLYLMGLILVQCYNGVLHSMLFGARYEFLPLMLTS”, the “transcriptional activation domain activity” value is 71000.

Consider “SERSERRADERSSRNGPSEAERGSERERGGREKRGGDRESSRRERERGGEARE”, for which the “transcriptional activation domain activity” value was 17200.

On to “AAAAAPATTTTESAPAPAAEAAKPAEEAKPAATEAAPAADATAAAPAPAPAAA”, for which the “transcriptional activation domain activity” value is below 6570.

“SLIGIGITILQQLSEISFLPMTTFNISRCLWRLSLLTILACVNFGPSIYIFWF”: the “transcriptional activation domain activity” value was determined as 51500.

Regarding “MHCEGCIQVIYRCYCLLIFLFFYYVCLFCLYILGKQLGLVHVFFYKYWCFFIL”, the “transcriptional activation domain activity” value was found to be 53100.

Turning to “SSGGEKGGAKETEKTPKWYVDGIRYGRATDMKLVKHLISLRVHLSTASLVWIE”, the “transcriptional activation domain activity” value came to 86800.

For “LLDELMNQTKVLQETLDFSLVTPTPHHNDDYKIHGSAYPGGETPAQQHEKLSY”, the “transcriptional activation domain activity” value came out at 35700.

Turning to “DAAKPAQGLFGGALAAGKSGETPKPAGSLFGAPSSSTKTGEEAKPAGGLFGAG”, the “transcriptional activation domain activity” value came out at 26100.

Consider “MPSITLAWPDRAYFYSLLVVSLLSSKLLHVFSHLTAIPIFLFLLYFPTFLFLD”, for which the “transcriptional activation domain activity” value worked out at 72500.

As for “DNMHVPGRFKDPNFLFYIQTMISSYALPFVRKAAILMHVRYGVELPSIPFECV”, the “transcriptional activation domain activity” value amounted to 75400.

Take “NFIIQGNSMISTPSGRNDLPDTSPMSSIQTASPPSQLLTDQGFADLDNFMSSL”: the “transcriptional activation domain activity” value worked out at 74500.

Regarding “AVPCVVIVRNSLLIIILLPLELPLVMYVGSSNDCRGILLFYLFWFWSLRAIAV”, the “transcriptional activation domain activity” value amounted to 68600.

Consider “TPIFMLIRIMIIGAHGVYQTAYRIVTKTQWEDGREIEDVYTYVGNERIDIKIV”, for which the “transcriptional activation domain activity” value is 28300.

Regarding “SSSKKRKAVEVEEEEEEEEEEEEPVEEPEVEKEKEIVAAPVAKKAKVTAAATS”, the “transcriptional activation domain activity” value was 29300.
